The values that follow come from PMC10157364.

Experiment [1] concerns the target all anti-oxMIF antibodies (quantitative oxMIF ELISA, Fig. 1C). The experiment is described as follows: ELISA; quantitative oxMIF ELISA: 15 nmol/L C0008, ON103 or ON203 as capture antibodies; human or mouse MIF in buffers with 0.2% Proclin300 as standard curves; EC50. In general terms: In an ELISA, binding on a coated surface is turned into a signal by an enzyme label.

For experiment [2], the target named is ON103 and ON203 versus C0008 (SPR, Fig. 1D). Description: SPR; Biacore 3000; antibodies amine-coupled to CM5 chips (about 2,500; 1,500; 1,000 RU); MIF at 42-666 nmol/L in HBS-EP with 0.2% Proclin300 (3 hours, room temperature), 30 uL/minute; Langmuir 1:1 model with mass transfer; mean of flow cells 2-4.

The EC50 is the concentration needed to bring the measured effect to its halfway point. The low end stands for a more potent agent, the high end for a less potent agent. Usually Kd stands for the concentration at which binding is half-saturated.

B1: human MIF treated with 0.2% Proclin300 (oxMIF surrogate) (natural protein)
chain: MPMFIVNTNVPRASVPDGFLSELTQQLAQATGKPPQYIAVHVVPDQLMAFGGSSEPCALCSLHSIGKIGGAQNRSYSKLLCGLLAERLRISPDRVYINYYDMNAANVGWNNSTFA
modifications: treated with 0.2% Proclin300 to transform MIF into an oxMIF surrogate
In experiment [1], B1 registered an EC50 of 0.6 to 0.7 nM. The Kd in experiment [2] lay within 3.5 to 6.1 nM.
